Each block holds one molecule with its values, some of them ahead of it.
What was measured:
[1] = molecular target: Lipoprotein lipase (LPL) (mouse) (UniProt P11152); experiment: cell-based or functional assay
LPL = molecular target: T1, LPL (Homo sapiens, UniProt P06858); settings: in vitro; read-out: IC50 for inhibition of LPL; cited from earlier work
T1 sequence (P06858 28-475): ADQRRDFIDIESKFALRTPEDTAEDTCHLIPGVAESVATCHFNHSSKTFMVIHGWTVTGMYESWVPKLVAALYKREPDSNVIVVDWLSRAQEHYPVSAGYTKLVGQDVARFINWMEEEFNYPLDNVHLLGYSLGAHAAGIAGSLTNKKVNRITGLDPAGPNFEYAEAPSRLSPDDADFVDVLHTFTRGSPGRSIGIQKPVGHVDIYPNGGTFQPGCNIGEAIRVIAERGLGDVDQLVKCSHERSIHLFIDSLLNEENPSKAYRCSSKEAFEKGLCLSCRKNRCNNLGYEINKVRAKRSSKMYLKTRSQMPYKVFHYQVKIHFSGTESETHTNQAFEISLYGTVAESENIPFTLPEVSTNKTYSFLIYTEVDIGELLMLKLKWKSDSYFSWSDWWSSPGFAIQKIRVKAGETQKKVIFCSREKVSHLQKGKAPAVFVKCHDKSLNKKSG

Lipoprotein lipase (LPL) (mouse), sequence (P11152 28-474 limits assumed): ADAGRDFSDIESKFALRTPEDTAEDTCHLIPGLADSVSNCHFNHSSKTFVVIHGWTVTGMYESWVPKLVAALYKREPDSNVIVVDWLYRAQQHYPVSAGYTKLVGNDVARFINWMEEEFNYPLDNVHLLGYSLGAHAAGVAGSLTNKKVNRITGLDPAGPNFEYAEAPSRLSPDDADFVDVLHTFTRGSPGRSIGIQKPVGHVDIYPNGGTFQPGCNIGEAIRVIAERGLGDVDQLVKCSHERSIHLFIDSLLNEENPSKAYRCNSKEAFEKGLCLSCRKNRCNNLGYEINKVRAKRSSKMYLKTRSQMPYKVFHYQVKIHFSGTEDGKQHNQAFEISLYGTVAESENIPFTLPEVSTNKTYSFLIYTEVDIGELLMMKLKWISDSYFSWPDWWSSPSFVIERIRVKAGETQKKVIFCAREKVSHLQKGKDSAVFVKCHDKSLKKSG

- epididymal fat pad LPL activity, GF Fiaf-/- mice versus GF littermates containing the wild-type Fiaf allele [1]: 67 % higher
Molecule: Fasting-induced adipose factor (Fiaf) (from UniProt Q9Z1P8 24-410)

B1: Fiaf: secreted protein, a potent inhibitor of LPL in vitro (protein)
chain: QGRPAQPEPPRFASWDEMNLLAHGLLQLGHGLREHVERTRGQLGALERRMAACGNACQGPKGKDAPFKDSEDRVPEGQTPETLQSLQTQLKAQNSKIQQLFQKVAQQQRYLSKQNLRIQNLQSQIDLLAPTHLDNGVDKTSRGKRLPKMTQLIGLTPNATHLHRPPRDCQELFQEGERHSGLFQIQPLGSPPFLVNCEMTSDGGWTVIQRRLNGSVDFNQSWEAYKDGFGDPQGEFWLGLEKMHSITGNRGSQLAVQLQDWDGNAKLLQFPIHLGGEDTAYSLQLTEPTANELGATNVSPNGLSLPFSTWDQDHDLRGDLNCAKSLSGGWWFGTCSHSNLNGQYFHSIPRQRQERKKGIFWKTWKGRYYPLQATTLLIQPMEATAAS
- IC50 (LPL): 0.2 µM
